Results reported in publication PMC8686072.

Target: DCLK1 KD (DCLK1 kinase domain lacking the inhibitory C-terminal tail) (human) (UniProt O15075)
Test: SPR

Sequence of UniProt O15075 (O15075 390-647): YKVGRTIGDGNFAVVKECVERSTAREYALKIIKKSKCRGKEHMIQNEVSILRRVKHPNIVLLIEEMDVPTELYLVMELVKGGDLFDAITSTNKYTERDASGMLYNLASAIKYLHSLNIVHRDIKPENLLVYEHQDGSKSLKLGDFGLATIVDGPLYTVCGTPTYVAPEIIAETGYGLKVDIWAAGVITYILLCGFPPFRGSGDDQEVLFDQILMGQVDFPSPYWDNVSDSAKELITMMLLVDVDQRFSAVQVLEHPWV

DCLK1 AID peptide (C-terminal autoinhibitory domain of DCLK1 isoform 2)
Kd: 155 µM
